Test results from patent US20240076370A1 (Memorial Sloan Kettering, published 2024).
Positions count from the first letter of the chain named.

B1: ET150-166 scFv (scFv)
scFv: NFMLTQPHSVSESPGKTVSISCTRTSGAIAGAYVQWFQQRPGSAPTTVIYDDNKRPSGVPDRFSGSIDKSSNSASLTISGLKTEDEADYYCQSYDYDSSNVLFGGGTKLTVLGSRGGGGSGGGGSGGGGSLEMAEVQLVESGGGLVQPGGSLRLSCAASGFTFSNYAMSWVRQAPGKGLEWVSAISGSGNTYYADSVKGRFTISRDNSKNTLYLQMNSLRAEDTAVYYCARGSVRYTDIWGQGTLVTVSS
notes: also called ET150-16 scFv
B2: ET150-169 scFv (scFv)
scFv: QSVVTQPPSVSAAPGQKVTISCSGSSSNIGNNYVSWYQQLPGTAPKLLIYDNNKRPSGIPDRFSGSKSGTSATLGITGLQTGDEADYYCGTWDSSLSGVVFGGGTKLTVLGSRGGGGSGGGGSGGGGSLEMAQVQLVQSGGEVKKPGASVKVSCKASGFTFNTYGISWVRQAPGQGLEWMGWISANNGHTKSAQRFQDRVAMATDTSTSTAYMELRSLKFDDTAVYYCARGGYHHQMQRYYKATSVYSDYWGQGTLVTVSS
notes: also called ET150-19 scFv
B3: ET150-171 scFv (scFv)
scFv: QSALTQPASVSGSPGQSITISCTGTSSDVGGYNFVSWYQQHPGKAPKVMIYDVSKRPSGISNRFSGSKSGNTASLTISGLQVEDEAEYYCSSYTSTRTVIFAGGTKVTVLGSRGGGGSGGGGSGGGGSLEMAQVQLVQSGAEVKKPGASVKVSCKASGYTFTSYYMHWVRQAPGQGLEWMGIINPSGGSTRYAQKFQGRVTMTRDTSTSTVYMELSSLRSEDTAVYYCARGSSRWGGWTGDYWGQGTLVTVSS
notes: also called ET150-21 scFv
B4: ET150-031 scFv (scFv)
scFv: AELQSVVTQPPSVSAAPGQRVTISCSGGSSNIGNNYVSWFQQLPRTAPKLLIYDNNKRPSGIPDRFSGSKSGTSAALDITVLQTGDEADYYCGTWDSSLRNWVFGGGTKLTVLGSRGGGGSGGGGSGGGGSLEMAQMQLVQSGAEVKKPGASVKVSCKASGYTFTSYYMHWVRQAPGQGLEWMGIINPSGGSTSYAQKFQGRVTMTRDTSTSTVYMELSSLRSEDTAVYYCARGQKYHSQYSRGGTGGGMTQDMWGQGTLVTVSS
notes: also called ET150-181 scFv
B5: ET150-163 scFv (scFv)
scFv: QSVVTQPPSVSGAPGQRVTISCTGSSSNIGAGYDVHWYQQLPGTAPKLLIYGNSNRPSGVPDRFSGSKSGTSASLAITGLQAEDEADYYCQSYDSSLSGSYVFGTGTKLTVLGSRGGGGSGGGGSGGGGSLEMAEVQLVETGGNLVQPGASLRLSCAASGFSFSGTAMHWVRQAPGKGLEWVSTISSTGRSTYYRDSVKGRFTISRDNSKNTLYLQMNSLRGEDTAVYYCARVSFDYWGQGTLVTVSS
notes: also called ET150-13 scFv
B6: ET150-154 scFv (scFv)
scFv: QAVLTQPPSASGTPGQRVTISCSGSSSNIGSNYVYWYQQLPGTAPKLLIYRNNQRPSGVPDRFSGSKSGTSASLAISGLRSEDEADYYCAAWDDSLSGYVFGTGTKVTVLGSRGGGGSGGGGSGGGGSLEMAQVQLVQSGAEVQRPGASVRVSCKAIAYTFTDYYIHWVRQAPGQGPEWMGWINPKSGRTQYAPKFQDRVTLARETPISTASMELRGLTSDDTAVYYCARVYGYSRWSGFDLWGQGTLVTVSS
notes: also called ET150-4 scFv
B7: ET150-026 scFv (scFv)
scFv: AELSYELTQPPSASGTPGQRVSISCSGSSSNIGSNTVNWYQQFPGTAPKLLIHSNNQRPSGVPDRFSGSKSGTSASLAISGPQSEDEADYYCAAWDDSVNGYVFGTGTKVTVLGSRGGGGSGGGGSGGGGSLEMAQLQLQESGGGSVQPGGSLRLSCAASGFTFSNYAMSWVRQAPGKGLEWVSAITNSGRSTYYADSVKGRFTISRDNSKNTLSLQMSSLRAEDTAVYYCARVTHRRYGSTFDSRGQGTLVTVSS
notes: also called ET150-176 scFv
B8: ET150-156 scFv (scFv)
scFv: QSALTQPASVSGSPGQSITISCTGTSRDVGGYNYVSWYQQYPGKAPKLMIYEVSKRPSGVSNRFSGSKSGNTASLTISGLQAEDEADYYCSSYTSSSTLDFGTGTKVTVLGSRGGGGSGGGGSGGGGSLEMAQVQLVQSGAEVKQPGASVKVSCQASGYTFTTYYMHWVRQAPGQGLEWMGIINPNGGGTFYAQKFQDRVTMTRDTSTGTVYMELSSLRSDDTAVYYCARGHKVYKSHPTGGYDRWGQGTLVTVSS
notes: also called ET150-6 scFv
B9: ET150-153 scFv (scFv)
scFv: QSVLTQPPSVSAAPGQKVTIPCSGSRSNVGNYYVSWYQQLPGTAPKLLIYDNNKRPSGIPDRFSGSKSGTSATLGITGLQTGDEADYFCGTWDGSLSAHVFGTGTKVTVLGSRGGGGSGGGGSGGGGSLEMAQVQLVQSGSELKKPGASVRVSCTASGYTFTSYYMHWVRQAPGQGLEWMGVINPNAGSTRYAQKFQGRVTMSTDTSTSTAYMDLSSLRSEDTAVYYCARGMYRSLLFYDPWGQGTLVTVSS
notes: also called ET150-3 scFv
B10: ET150-165 scFv (scFv)
scFv: QSALTQPPSASGSPGQSVTISCTGTSSDIGGYNYVSWYQQHPGKAPKLMIYEVNKRPSGVPDRFSGSKSGNTASLTVSGLQAEDEADYYCASFAGRKTLVFGGGTKLTVLGSRGGGGSGGGGSGGGGSLEMAQVQLVQSGAEVKKPGASVKVSCRASGYTFTAYSLHWVRQAPGQGLEWMGWINPSSGGAVYAQKFQGRVTMTRDTSISTAYMELSGLRSDDTAVYYCARNVGGQADDWGQGTLVTVSS
notes: also called ET150-15 scFv
B11: ET150-167 scFv (scFv)
scFv: B10 scFv with S27T, Q40H, G43S, Q235H
notes: also called ET150-17 scFv
B12: ET150-161 scFv (scFv)
scFv: SYVLTQPPSASGTPGQRVTISCSGSSSNIGSNTVNWYQQLPGTAPKLLIYRNNQRPSGVPDRFSGSKSGTSASLAISGLRSEDEADYYCAAWDDSLSGLFGTGTKVTVLGSRGGGGSGGGGSGGGGSLEMAQMQLVQSGAEVKKPGASVKVSCKASEYTFTRHILHWVRQAPGQSLEWMGWINPGNGNTKYSQKFQVRVTFTRDTSASTVYMELSSLRSEDTAVYYCARLPDQWGQGTLVTVSS
notes: also called ET150-11 scFv
B13: ET150-160 scFv (scFv)
scFv: QSALTQPASVSGSPGQSITISCTGTSSDVGGYNYVSWYQQHPGKAPKLMIYDVSKRPSGVSNRFSGSKSGNTASLTISGLQAEDEADYYCSSYTRSSTEVFGGGTKLTVLGSRGGGGSGGGGSGGGGSLEMAEVQLVQSGAEVKKPGASVKVSCKASGYTFTSYYMHWVRQAPGQGLEWMGIINPSGGSTSYAQKFQGRVTMTRDTSTSTVYMELSSLRSEDTAVYYCARGGSKKWSGEKWRRENFDYWGQGTLVTVSS
notes: also called ET150-10 scFv
B14: ET150-173 scFv (scFv)
scFv: QSALTQPASVSGSPGQSITISCTGTSSDVGGYNYVSWYQQSPGKAPRLMIYGVSKRPSGVPDRFSGSKSGNTASLTVSGLQAEDEADYYCSSYAGVNNLMFGGGTKLTVLGSRGGGGSGGGGSGGGGSLEMAQVQLVQSGAEVKKPGASVKVSCKASGYTFTSYYMHWVRQAPGQGLEWMGIINPSGGSTSYAQKFQGRVTMTRDTSTSTVYMELSSLRSEDTAVYYCARDVISGFDSWGQGTLVTVSS
notes: also called ET150-23 scFv
B15: ET150-032 scFv (scFv)
scFv: AELQSVLTQPPSASGSPGQSLTISCTGTSSDVGGYNHVSWYQQYPGKAPKLMIYEVTKRPSGVPDRFSGSKSGNTASLTVSGLQAEDEADYYCSSYAGSAHWVFGGGTKLTVLGSRGGGGSGGGGSGGGGSLEMAEVQLVQSGAEVKKPGASVKVSCKASGYTFSRYYIHWVRQAPGQGLEWMGWMNPNSGNTGYAQKFQGRVTMTRNTSISTAYMELSSLRSEDTAVYYCARGRYHVIDYWGQGTLVTVSS
notes: also called ET150-182 scFv
B16: ET150-028 scFv (scFv)
scFv: AELQPVLTQPPSASGTPGQRVTISCSGSSSNIGGNTVSWYQQVPGTAPRLLIFRNNQRPPGVPDRFSGSKSGTSASLAISGLRSEDEADYYCAAWDASRQGVFGGGTKLTVLGSRGGGGSGGGGSGGGGSLEMAQVQLVQSGAEVKKPGSSVKVSCKASGGTFRSYAITWVRQAPGQGLEWMGRIIPMLDITNYAQKFQGRVTITADKSTSTAYMELSSLRSEDTAVYYCARTYSRSPFHMEDFWGQGTLVTVSS
notes: also called ET150-178 scFv
B17: ET150-030 scFv (scFv)
scFv: AELQSVLTQPPSVSGAPGQRVTISCTGSSSNIGAGYDVHWYQQLPGRAPKLLIYGNSNRPSGVPDRFSGSKSGTSASLAITGLQAEDEADYYCQSYDSSLRGYVFGTGTKVTVLGSRGGGGSGGGGSGGGGSLEMAQVQLVQSGGGVVQPGRSLRLSCAASGFSFSGTAMHWVRQAPGKGLEWVSTISSTGRSTYYRDSVKGRFTISRDNSKNTLYLQMNSLRGEDTAVYYCARPVSSMTLSIQSDGWGQGTLVTVSS
notes: also called ET150-180 scFv
B18: ET150-033 scFv (scFv)
scFv: AELQAVLTQPPSASGTPGQRVTISCSGSSSNIGSNYVYWYQQLPGTAPKLLIYRNNQRPSGVPDRFSGSKSGTSASLAISGLRSEDEADYYCAAWDDSLSGRVFGTGTKVTVLGSRGGGGSGGGGSGGGGSLEMAQLQLVQSGAEVKKPGSSVKVSCKASGYTFNTYYLHWVRQAPGQGLEWMGRINPNNGGTNYAQKFQGRVTMTRDTSINTAYMELSRLRSDDTAVYYCARSYDYWGQGTLVTVSS
notes: also called ET150-183 scFv
B19: ET150-164 scFv (scFv)
scFv: QSALTQPPSASGSPGQSVTISCTGTSSDVGGYNYVSWYQQHPGKAPKLMIYEVSKRPSGVPDRFSGSKSGNTASLTVSGLQAEDEADYYCSSYAGSNTLVFGGGTKLTVLGSRGGGGSGGGGSGGGGSLEMAQMQLVQSGAEVKKPGASVKVSCKASGYTFTSYYMHWVRQAPGQGLEWMGIINPSGGSTSYAQKFQGRVTMTRDTSTSTVYMELSSLRSEDTAVYYCARAGMGMDTWGQGTLVTVSS
notes: also called ET150-14 scFv
B20: ET150-172 scFv (scFv)
scFv: B19 scFv with T190S
notes: also called ET150-22 scFv
B21: ET150-162 scFv (scFv)
scFv: QSALTQPPSASGSPGQSVTISCTGTSRDAGGYNYFSWYQQHPGKAPKLLIYEVTKRPSGVPDRFSGSKSGKTASLTVSGLQADDEAVYYCSSYGGSNNFRVFGGGTKLTVLGSRGGGGSGGGGSGGGGSLEMAEVQLVESGGGVVRPGGSLRLSCAASGFTFGDYGMSWVRQAPGKGLEWVSGINWNGGSTGYADSVKGRFTISRDNAKNSLYLQMNSLRAEDTAVYYCARSKQDYWGQGTLVTVSS
notes: also called ET150-12 scFv

target: T1, human G-protein coupled receptor family C group 5 member D (GPRC5D) (human, UniProt Q9NZD1 1-345); experiment: FACS, scFv phage clones on 3T3 cells overexpressing GPRC5D
T1 construct: Overexpressed on 3T3 cells in the FACS assays; also called human GPRC5D; 3T3-GPRC5D
T1 sequence (Q9NZD1 whole entry): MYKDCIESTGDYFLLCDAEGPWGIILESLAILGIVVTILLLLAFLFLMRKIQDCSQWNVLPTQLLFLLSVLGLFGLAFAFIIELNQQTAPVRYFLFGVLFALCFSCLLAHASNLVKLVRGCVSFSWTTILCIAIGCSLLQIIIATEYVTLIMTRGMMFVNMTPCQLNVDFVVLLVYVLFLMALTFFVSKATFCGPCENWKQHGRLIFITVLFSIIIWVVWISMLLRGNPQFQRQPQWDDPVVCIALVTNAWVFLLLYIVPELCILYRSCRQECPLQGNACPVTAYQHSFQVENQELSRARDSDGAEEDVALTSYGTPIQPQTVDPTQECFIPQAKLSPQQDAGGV

Binding result, binds:
B1
B2
B3
B4
B5
B6
B7
B8
B9
B10
B11
B12
B13
B14
B15
B16
B17
B18
B19
B20
B21
